Measured values from publication PMC10694664 (The Journal of Biological Chemistry, 2023).
Where a chain is given by its changes, count along the chain named. In names and notes the source's numbering stands.

B1: Cy5-labelled Fis1ΔN (residues 9-125) (domain or fragment)
chain: VSVEDLLKFEKKFQSEKAAGSVSKSTQFEYAWCLVRSKYNDDIRKGIVLLEELLPKGSKEEQRDYVFYLAVGNYRLKEYEKALKYVRGLLQTEPQNNQAKELERLIDKAMKKDGLVG
B2: Fis1 (human Fis1 residues 1-125, with the N-terminal arm) (domain or fragment)
chain: MEAVLNELVSVEDLLKFEKKFQSEKAAGSVSKSTQFEYAWCLVRSKYNDDIRKGIVLLEELLPKGSKEEQRDYVFYLAVGNYRLKEYEKALKYVRGLLQTEPQNNQAKELERLIDKAMKKDGLVG
B3: Fis1 E7A (human Fis1 residues 1-125 with E7A) (domain or fragment)
chain: B2 chain with E7A
B4: Fis1ΔN (human Fis1 residues 9-125, lacking the N-terminal arm) (domain or fragment)
chain: B1 chain

Tests used:
[1] = target: B4; assay: NMR titration
[2] = target: T1, Dynamin-related protein 1 (Drp1) isoform 1, unlabelled (human, UniProt O00429 1-736); assay: MST
[3] = target: Cy5-labelled Drp1 (isoform 1) (human, UniProt O00429 1-736); assay: MST
[4] = target: T1, Dynamin-related protein 1 (Drp1) …; assay: NMR titration

Cy5-labelled Drp1 (isoform 1), sequence (O00429 whole entry, canonical isoform): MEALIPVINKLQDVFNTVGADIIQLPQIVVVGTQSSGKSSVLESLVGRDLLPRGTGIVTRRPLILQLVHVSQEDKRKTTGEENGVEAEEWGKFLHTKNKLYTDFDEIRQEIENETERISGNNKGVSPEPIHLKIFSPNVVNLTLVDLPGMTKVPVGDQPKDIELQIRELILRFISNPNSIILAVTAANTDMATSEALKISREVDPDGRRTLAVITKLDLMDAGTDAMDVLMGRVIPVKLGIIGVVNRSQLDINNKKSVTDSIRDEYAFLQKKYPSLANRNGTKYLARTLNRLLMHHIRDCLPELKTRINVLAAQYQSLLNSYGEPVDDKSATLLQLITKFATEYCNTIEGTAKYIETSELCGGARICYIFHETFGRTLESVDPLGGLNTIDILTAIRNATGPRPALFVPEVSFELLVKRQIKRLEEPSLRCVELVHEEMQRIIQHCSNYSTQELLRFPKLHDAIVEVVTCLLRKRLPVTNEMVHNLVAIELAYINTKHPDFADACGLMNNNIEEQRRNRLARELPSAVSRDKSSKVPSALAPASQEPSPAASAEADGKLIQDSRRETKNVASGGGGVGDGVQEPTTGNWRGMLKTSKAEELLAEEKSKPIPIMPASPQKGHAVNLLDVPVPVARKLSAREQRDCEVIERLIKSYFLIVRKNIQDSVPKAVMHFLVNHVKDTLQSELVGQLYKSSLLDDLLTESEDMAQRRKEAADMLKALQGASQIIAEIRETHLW
T1 sequence (O00429 whole entry, canonical isoform): as above

With Ac-MEAVLNEL-NH2 [Fis1 N-terminal arm peptide] the Kd [1] was no less than 5000 µM.

Work on B1 yielded a Kd [2] of 15 µM.

For B2, the Kd [3] was 13 ± 3 µM.

B3 was tested, and the Kd [3] was 7 ± 1 µM.

With B4 the Kd [4] was 26 to 68 µM.
